According to US20050038228A1:
Substitutions are numbered along the chain they refer to.

B1: MG56 peptide (peptide)
peptide: MTTYKLVINGKTLKGETTTKAVDAETAEKAFKQYANDNGVDGVWTYDDATKTFTVTE
B2: C36 peptide (peptide)
peptide: MTTYKLVINGKTLKGETTTKAVDAETAERAFRQYATDNGVEGMWTYDPATKTFTVTEC
B3: CO4 peptide (peptide)
peptide: B2 peptide with Q33K, T36N, M43I
B4: B04 peptide (peptide)
peptide: B2 peptide with Q33K, E41D
B5: C24 peptide (peptide)
peptide: B2 peptide with Q33K, T36N, E41D
B6: C15 peptide (peptide)
peptide: B2 peptide with T36N, M43L

Tests used:
[1] = target: rheumatoid factor in serum of rheumatism patients (human); test: batch adsorption with γ-sterilized adsorbent: 100 µL adsorbent with 600 µL rheumatism patient serum, 37° C., 2 h; rheumatoid factor depletion from the supernatant
[2] = target: IgG in healthy human serum (human); test: batch adsorption as in Example 7 with γ-sterilized adsorbent and healthy human serum; IgG depletion from the supernatant
[3] = target: anti-β1 adrenoceptor antibody in serum of patients with dilated cardiomyopathy (human); test: batch adsorption with γ-sterilized adsorbent and dilated cardiomyopathy patient serum; antibody left in the supernatant measured by ELISA on the β1-adrenoceptor second loop peptide
[4] = target: IgG in healthy human serum (human); test: batch adsorption: 100 µL adsorbent with 300 µL healthy human serum, 37° C., 2 h; IgG depletion from the supernatant against a saline control
[5] = target: IgG in healthy human serum (human); test: batch adsorption after γ-ray sterilization (25 kGy): 100 µL adsorbent with 300 µL healthy human serum, 37° C., 2 h; IgG depletion from the supernatant
[6] = target: immune complex prepared by heating a human IgG solution (10 mg/mL) at 63° C. for 15 minutes (human); test: batch adsorption from healthy human serum spiked with immune complex (20 µg/mL); supernatant measured with a C1q-CIC kit
[7] = target: immune complex prepared by heating a human IgG solution (10 mg/mL) at 63° C. for 15 minutes (human); test: batch adsorption after γ-ray sterilization (25 kGy) from healthy human serum spiked with immune complex (20 µg/mL); supernatant measured with a C1q-CIC kit

| Binder | Adsorption ratio of rheumatoid factor (%) [1] [%] | Adsorption ratio of an immune complex before sterilization (%) [6] [%] | Adsorption ratio of an immune complex after sterilization (%) [7] [%] | also measured |
| --- | --- | --- | --- | --- |
| B1 | 34.4 |  |  |  |
| B2 | 56.3 |  |  | Adsorption ratio of IgG (%) [2]: 59.7%; Adsorption ratio of β1 adrenoceptor (%) [3]: 77.8% |
| B3 |  |  |  | Adsorption ratio of IgG before sterilization (%) [4]: 97.1%; Adsorption ratio of IgG after sterilization (%) [5]: 90.2% |
| B4 |  | 92.4 | 91.6 |  |
| B5 |  | 81.5 | 80.5 |  |
| B6 |  | 85.2 | 84.1 |  |
